Key:
[1] = target: T1, recombinant human soluble gpNMB (human gpNMB-FLAG-His) (human, UniProt Q14956 23-498); assay: SPR single-cycle kinetics, gpNMB-FLAG-His captured, 1:1 model
T1 construct: FLAG and His tags; also called recombinant human gpNMB-FLAG-His
T1 sequence: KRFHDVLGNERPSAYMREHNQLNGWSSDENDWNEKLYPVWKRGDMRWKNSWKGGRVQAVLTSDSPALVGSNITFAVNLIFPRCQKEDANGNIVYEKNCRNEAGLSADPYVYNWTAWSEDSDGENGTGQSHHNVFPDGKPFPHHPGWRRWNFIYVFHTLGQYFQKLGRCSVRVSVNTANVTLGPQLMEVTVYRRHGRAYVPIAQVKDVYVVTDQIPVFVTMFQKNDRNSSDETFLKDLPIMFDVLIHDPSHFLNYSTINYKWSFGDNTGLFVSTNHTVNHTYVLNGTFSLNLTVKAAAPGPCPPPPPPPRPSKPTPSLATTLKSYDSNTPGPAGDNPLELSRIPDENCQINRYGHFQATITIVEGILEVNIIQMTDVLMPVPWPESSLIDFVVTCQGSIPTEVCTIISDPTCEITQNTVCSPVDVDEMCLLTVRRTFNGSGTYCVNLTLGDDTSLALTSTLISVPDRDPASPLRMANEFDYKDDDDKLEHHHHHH

[2] = target: T2, recombinant mouse soluble gpNMB (mouse gpNMB-FLAG-His) (mouse, UniProt Q99P91 23-502); assay: as above
T2 construct: FLAG and His tags; also called recombinant mouse gpNMB-FLAG-His
T2 sequence: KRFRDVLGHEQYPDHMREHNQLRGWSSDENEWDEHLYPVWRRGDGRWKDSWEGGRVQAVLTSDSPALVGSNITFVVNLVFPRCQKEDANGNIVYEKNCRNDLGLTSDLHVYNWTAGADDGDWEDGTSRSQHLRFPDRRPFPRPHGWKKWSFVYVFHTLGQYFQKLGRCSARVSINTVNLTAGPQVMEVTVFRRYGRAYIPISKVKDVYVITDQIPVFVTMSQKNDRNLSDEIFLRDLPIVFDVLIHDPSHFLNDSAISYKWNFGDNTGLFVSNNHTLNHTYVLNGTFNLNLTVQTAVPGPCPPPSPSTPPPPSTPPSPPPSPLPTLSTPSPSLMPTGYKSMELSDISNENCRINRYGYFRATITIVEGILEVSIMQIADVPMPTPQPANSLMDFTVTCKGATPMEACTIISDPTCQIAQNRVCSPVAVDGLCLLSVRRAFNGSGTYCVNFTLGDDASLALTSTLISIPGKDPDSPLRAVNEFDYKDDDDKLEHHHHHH

B1: GPN05-1 (antibody, V domains shown)
VH: QVQLQQSGAELVRPGTSVKVSCKASGYAFSNHLIEWVKQRPGQGLEWIGVINPGSGGTNYIEKFKGKATLTADKSSSTAYMQLSSLTSDDSAVYFCARGANWDVGFAYWGQGTLVTVSA
VL: EIQMTQSPSSMSASLGDRITITCQATQDIVKNLNWYQQKPGKPPSFLIYYATELAEGVPSRFSGSGSGSDFSLTISNLESEDFADYYCLQFHEFPRTFGGGTKLEIK
notes: anti-gpNMB monoclonal antibody
[1]
  Kd: 0.366 nM
  koff: 3.55e-05 s⁻¹
  kon: 96900 M⁻¹ s⁻¹
[2]
  Kd: 8.5 nM
  koff: 0.000307 s⁻¹
  kon: 36100 M⁻¹ s⁻¹

B2: GPN06-1 (antibody, V domains shown)
VH: QVQLQQPGAEIVRPGASVKLSCKASGYTFTDNWMGWVKQRPGQGLEWIGAIDPSDSFTNYNQNFKGKATLTVDTSSSTAYMQLSSLTSEDSAVYFCTRSGYYGSPKLGGDYWGQGTTLTVSS
VL: QIVLTQSPAIMSASLGEEITLTCSASSSISYMHWYQQKSGTSPKLLIYSTSNLASGVPSRFSGSGSGTFYSLTISSVEAEDAADYYCHQWNSYPCTFGGGTKLEIK
notes: as for B1
[1]
  Kd: 0.488 nM
  koff: 0.000253 s⁻¹
  kon: 519000 M⁻¹ s⁻¹
[2]
  Kd: 5.05 nM
  koff: 0.000879 s⁻¹
  kon: 174000 M⁻¹ s⁻¹
